According to US8691772B2, “HSP60, HSP60 peptides and T cell vaccines for immunomodulation” (Yeda Research and Development Co. Ltd., priority 2005, dated 2014):

What was measured:
[1] = test system: human CD3^+, CD4^+, and CD8^+ T cells; experiment: Cytokine secretion of anti-CD3-activated CD3+, CD4+, CD8+ and CD25-separated T cells; type: cell-based; conditions: for secretion of IL-10 and TGF-β: anti-CD3
Description: Purified T-cell populations. […] In a second round of purification, CD4^+ T cells were separated to CD25^− and CD25^+ populations with magnetically coupled mAb against human CD25 (Miltenyi Biotec; Bergisch Gladbach, Germany).

NFATp = NFATp activation in T cells; type: cell-based, human
Protocol: (§1) Western blot analysis of T-cell nuclear extracts. Purified T cells (5×10^6) were preincubated with different concentrations of HSP60 for the indicated periods of time (37° C. in a 7% CO2, humidified atmosphere). […] T cells were lysed in 10 mM HEPES, 1.5 mM MgCl2, 1 mM dithiothreitol (DTT), 1 mM PMSF, 0.5% Nonidet P-40. The lysates were incubated on ice for 10 min and centrifuged at 2000 rpm for 10 min at 4° C. The supernatants (cytoplasmic extracts) were transferred and the pellet (nuclei) was suspended in buffer containing 30 mM HEPES, 450 mM NaCl, 25% Glycerol, 0.5 mM EDTA, 6 mM DTT, 12 mM MgCl2 1 mM PMSF, 10 μg/ml leupeptin, 10 μg/ml pepstatin, 1% phosphatase inhibitor cocktail, and the suspension was incubated on ice for 30 min. The lysates were cleared by centrifugation (30 min, 14×10^3 rpm, 4° C.), and the resulting supernatants analyzed for protein content. For NFATp analysis nuclear extracts were prepared with a NE-PER Nuclear and Cytoplasmic Extraction reagent (Pierce, Rockford, Ill.) according to the manufacturer's protocol. Sample buffer was then added and, after boiling, the samples, containing equal amounts of proteins, were separated on 10% SDS-PAGE gel and transferred to nitrocellulose membranes. The membranes were blocked with TBST buffer containing low-fat milk (5%), Tris pH 7.5 (20 mM), NaCl (135 mM) and Tween 20 (0.1%), and probed with the following mAb in the same buffer: anti-NF-κb (diluted 1:1000), anti-total (t) ERK (diluted 1:20,000), anti-NFATp (diluted 1:500), anti T-bet (diluted 1:1000), anti-GATA-3 (diluted 1:1000), anti-Lamin B (diluted 1:1000). Immunoreactive protein bands were visualized using labeled secondary antibodies and the enhanced ECL system.

SOCS3 = SOCS3 expression in human T cells (immunoblot); type: cell-based
DTH = DTH assay (adoptive transfer, oxazolone); type: in vivo, BALB/c mice; conditions: oxazolone-reactive lymph node cells exposed in vitro to 1 μg/ml for 1 hr; ear swelling 24 hr
Protocol: DTH assays. BALB/c mice (females; 1.5 months of age) were sensitized by painting of their shaved abdominal walls with Oxazolone (2%) emulsified in 100 μl of acetone/olive oil (Sigma-Aldrich). On day 5, mice were sacrificed, their draining (inguinal, mesenteric, and cervical) lymph nodes were collected, and a single cell suspension was prepared. The cells were treated with HSP60 (1 μg/ml; 1 hr; tissue culture conditions), washed, and injected (5×10^7 cells per mouse) i.v. into the tails of naive mice (at least 6 mice per group). Painting of the earlobes with oxazolone (10 μl of 0.5% in acetone/olive oil), which generates a DTH response, was performed immediately after cell inoculation. The area of the ears that was painted was measured before challenge and 24 hr later with a micrometer. Changes in earlobe thickness are indicative of DTH reactivity. All animal studies were performed in compliance with and were approved by laws and animal welfare guidelines of The Weizmann Institute of Science (IACUC).

T-bet and GATA-3 = T-bet and GATA-3 expression in human T cells; type: cell-based
Protocol: as §1

NF-κB = experiment: Nuclear translocation of NF-κB in T cells; type: cell-based, human
Protocol: as §1

CD4^+CD25^+ T cells = experiment: Co-culture of treated CD4+CD25+ T cells with CD4+CD25- T cells; type: cell-based, human
[2] = CD3+ and CD4+ T cells pre-treated 2 hours, washed, anti-CD3 24 hr
[3] = 1 ng/ml and 1 μg/ml, no anti-CD3
[4] = CD4+CD25+ treated 1 ng/ml 2 hr, co-cultured with CD4+CD25- on anti-CD3, 24 hr

B1: HSP60: recombinant human heat shock protein 60 (StressGen Biotechnologies) (protein)
chain: AKDVKFGADARALMLQGVDLLADAVAVTMGPKGRTVIIEQSWGSPKVTKDGVTVAKSIDLKDKYKNIGAKLVQDVANNTNEEAGDGTTTATVLARSIAKEGFEKISKGANPVEIRRGVMLAVDAVIAELKKQSKPVTTPEEIAQVATISANGDKEIGNIISDAMKKVGRKGVITVKDGKTLNDELEIIEGMKFDRGYISPYFINTSKGQKCEFQDAYVLLSEKKISSIQSIVPALEIANAHRKPLVIIAEDVDGEALSTLVLNRLKVGLQVVAVKAPGFGDNRKNQLKDMAIATGGAVFGEEGLTLNLEDVQPHDLGKVGEVIVTKDDAMLLKGKGDKAQIEKRIQEIIEQLDVTTSEYEKEKLNERLAKLSDGVAVLKVGGTSDVEVNEKKDRVTDALNATRAAVEEGIVLGGGCALLRCIPALDSLTPANEDQKIGIEIIKRTLKIPAMTIAKNAGVEGSLIVEKIMQSSSEVGYDAMAGDFVNMVEKGIIDPTKVVRTALLDAAGVASLLTTAEVVVTEIPKEEKDPGMGAMGGMGGGMGGGMF
Question: Which “effect on cytokine secretion at doses in the order of 10 ng/ml” value [1] does the source give for B1 here?
Answer: did not affect cytokine secretion

Question: What about the “inhibition of IFN-γ and TNF-α secretion in purified CD4+CD25- T cells” value ([1]; 1 ng/ml, 2 hours, anti-CD3 24 hours) of the same molecule?
Answer: completely prevented the inhibition of IFN-γ and TNF-α secretion by HSP60 treatment

Question: And the “enhancement of IL-10 secretion” value [1, 2]?
Answer: 2-3 fold

Question: What about the “inhibition of anti-CD3-induced IFN-γ secretion” value [1, 2] of the same molecule?
Answer: about 50%

Question: And the “inhibition of anti-CD3-induced TNF-α secretion” value [1, 2]?
Answer: about 50%

Question: And the “secretion of IL-10 and TGF-β” value ([1]; CD4+CD25- T cells, 1 ng/ml)?
Answer: but not of CD4^+CD25^− T cells

Question: And the “cytokine secretion without anti-CD3” value ([1]; HSP60 alone, 0.01-1000 ng/ml)?
Answer: did not induce cytokine secretion by the T cells

Question: What about the “higher concentrations at which cytokine secretion was again affected significantly” value ([1]; P<0.05) of the same molecule?
Answer: 0.1-1 μpg/ml

Question: What about the “low concentrations with significant effects on cytokine secretion” value ([1]; P<0.05) of the same molecule?
Answer: 0.1 to 1.0 ng/mL

Question: What about the “cytokine secretion of CD8+ T cells” value ([1]; anti-CD3-activated) of the same molecule?
Answer: unresponsive to HSP60 at all concentrations tested

Question: And the “secretion of IL-10 and TGF-β” value ([1]; un-separated CD4+ or CD4+CD25+ T cells, 1 ng/ml)?
Answer: significantly up-regulated the secretion of IL-10 and TGF-β

Question: What about the “time at which NFATp inhibition was apparent” value (NFATp; 1 ng/ml) of the same molecule?
Answer: 60 min

Question: What about the “time of peak NFATp inhibition” value (NFATp; 1 ng/ml) of the same molecule?
Answer: 120 to 240 min

Question: What about the “anti-CD3-induced activation and de-phosphorylation of NFATp” value (NFATp; 1 ng/ml pre-treatment) of the same molecule?
Answer: significant down-regulation of their activation and de-phosphorylation of NFATp

Question: What about the “NFATp phosphorylation in the absence of anti-CD3” value (NFATp; HSP60 alone) of the same molecule?
Answer: did not affect NFATp phosphorylation

Question: And the “time at which SOCS3 activation was apparent” value (SOCS3; 1 ng/ml)?
Answer: 30 min

Question: What about the “time of peak SOCS3 activation” value (SOCS3; 1 ng/ml) of the same molecule?
Answer: 1 to 2 h

Question: And the “HSP60 concentrations of maximal SOCS3 activation” value (SOCS3; biphasic dose-response curve)?
Answer: 1 ng/mL and 1000 ng/mL

Question: And the “expression of SOCS3” value (SOCS3; human T cells, 1 hr, 0-1000 ng/ml)?
Answer: activated the expression of SOCS3 (P<0.05)

Question: What about the “inhibition of ability to adoptively transfer DTH” value (DTH) of the same molecule?
Answer: 50%

Question: And the “T-bet expression induced by anti-CD3” value (T-bet and GATA-3; 1 ng/ml and 1 μg/ml, 1 hr pre-treatment)?
Answer: significantly (P<0.05) inhibited the T-bet expression induced by the anti-CD3

Question: And the “protein level of GATA-3” value (T-bet and GATA-3; [3])?
Answer: significantly (P<0.01) up-regulated the protein level of GATA-3

Question: What about the “protein level of T-bet” value (T-bet and GATA-3; [3]) of the same molecule?
Answer: but not of T-bet

Question: And the “GATA-3 expression with anti-CD3” value (T-bet and GATA-3; 1 hr pre-incubation)?
Answer: significantly up-regulated the expression level of GATA-3

Question: And the “time at which NF-κB inhibition was apparent” value (NF-κB; 1 ng/ml)?
Answer: 60 min

Question: And the “time of peak NF-κB inhibition” value (NF-κB; 1 ng/ml)?
Answer: 120 to 240 min

Question: What about the “nuclear translocation of NF-κB without anti-CD3” value (NF-κB; HSP60 alone) of the same molecule?
Answer: did not affect the nuclear translocation of NF-κB

Question: And the “concentrations of maximal effects on NF-κB” value (NF-κB; P<0.01)?
Answer: 1 ng/ml or 1 μg/ml

Question: What about the “anti-CD3-induced proliferation of CD4+CD25- T cells in co-culture” value (CD4^+CD25^+ T cells; 24 hours) of the same molecule?
Answer: did not suppress anti-CD3-induced proliferation

Question: What about the “anti-CD3-induced proliferation of CD4+CD25- T cells in co-culture” value (CD4^+CD25^+ T cells; 96 hours) of the same molecule?
Answer: significant inhibition of proliferation

Question: What about the “IFN-γ and TNF-α secretion in co-culture” value (CD4^+CD25^+ T cells; [4]) of the same molecule?
Answer: significantly enhanced the down-regulation of secretion of IFN-γ and TNF-α secretion

Question: What about the “IL-10 and TGF-β secretion in co-culture” value (CD4^+CD25^+ T cells; [4]) of the same molecule?
Answer: up-regulated the secretion of IL-10 and TGF-β in the co-cultures

Question: And the “inhibition of IFN-γ and TNF-α secretion of CD4+CD25- T cells by supernatants of treated Tregs” value (CD4^+CD25^+ T cells; HSP60 1 ng/ml, 2 hr, supernatants after 24 hr on anti-CD3)?
Answer: about 30%
